Test results reported in publication PMC8115288.

B1: GST-CTD (C-terminal domain of HIV-1 integrase, aa 201-288) [HIV-1 His6-SUMO-INI1_(183-304) [not stated] (parent)
chain 1: VDIIATDIQTKELQKQITKIQNFRVYYRDSRNPLWKGPAKLLWKGEGAVVIQDNSDIKVVPRRKAKIIRDYGKQMAGDDCVASRQDED
chain 2: PEVLVPIRLDMEIDGQKLRDAFTWNMNEKLMTPEMFSEILCDDLDLNPLTFVPAIASAIRQQIESYPTDSILEDQSDQRVIIKLNIHVGNISLVDQFEWDMSEKENSPEKFALKLCSELGLG

Variants of: B1
Assay: Alpha assay
Conditions: with His6-SUMO-INI1_(183-304); low salt conditions; parent: 100; read off a plot

Variant | percent of parent
chain 1 R28A | 8 % of WT
